In patent US20190309069A1 (SHANGHAI HENGRUI PHARMACEUTICAL, published 2019):
Changes are numbered by the printed parent chain.

How the values were obtained:
[1] = molecular target: T1, PD-1 His protein (Beijing Sino Biological Inc.) (UniProt Q15116 25-167, limits assumed); test: Biacore SPR as in Example 5, PD-1 His as analyte
T1 construct: Bought reagent, analyte in the Biacore assay; not shown: His tag
Description: (§1) According to the instruction of a kit provided by Biacore, the test PD-1 antibody of the present invention was covalently linked to CM5 (GE) chip using a standard amino coupling method. Then a series of gradient concentrations of PD-1 His protein (Beijing Sino Biological Inc.), which were diluted in the same buffer, were loaded into each cycle successively. After that, the samples were regenerated with regenerated reagent in the kit. The antigen-antibody binding kinetics was tracked for 3 minutes and the dissociation kinetics was tracked for 10 minutes. The data obtained was analyzed by GE's BIAevaluation software using 1:1 (Langmuir) binding model.
(§2) Humanized antibodies were subjected to ELISA binding assay (method is the same as that of Example 2), ligand binding blocking assay (method is the same as that of Example 2), and affinity kinetics experiment (method is the same as that of Example 5) in vitro.

[2] = molecular target: T2, recombinant PD-1 extracellular domain Fc fusion protein (PD-1 Fc) (human, biotin label (sites not given) in the ELISA binding assay; unlabelled when coated in the ligand blocking assay); test: ELISA as in Example 2, biotinylated PD-1 Fc captured on avidin
T2 construct: also called human PD-1Fc; human PD-1
Description: (§3) The PD-1 antibody blocks signaling pathway of PD-1 and its ligand by binding to PD-1 extracellular domain. In vitro ELISA assay is used to detect the binding property of the PD-1 antibody. Biotinylated PD-1 extracellular domain FC fusion protein (PD-1 FC) is coated onto 96-well plates by binding to neutralization avidin. Signal intensity after the addition of the antibody is used to determine the binding property of the antibody and PD-1.
(§4) Neutralization avidin (binding to biotin) was diluted to 1 μl/ml with PBS buffer, pipetted into a 96-well plate with at 100 μl/well and standed for 16 h-20 h at 4° C. The 96-well plate was washed once with PBST (PH7.4 PBS, containing 0.05% tweeen20) after PBS buffer was removed, then the plate was incubated and blocked for 1 h at room temperature with addition of 120 μl/well PBST/1% milk. After removal of the blocking solution, the plate was washed with PBST buffer, followed by addition of 1 μg/ml biotin-labeled PD1-FC which was diluted by PBST/1% milk, and incubated for 1 h at room temperature. After removal of the blocking solution, the plate was washed with PBST buffer for 3 times, followed by addition of the test PD-1 antibody which was diluted to a suitable concentration by PBST/1% milk, and incubated for 1.5 h at room temperature. After removal of reaction system, the plate was washed for 3 times with PBST buffer, followed by addition of 100 μl/well HRP-labeled anti-murine secondary antibody (The Jackson Laboratory) which was diluted by PBST/1% milk, and incubated for 1 h at room temperature. After being washed with PBST for three times, the plate was added with 100 μl/well TMB, and incubated for 5-10 min at room temperature. Then the reaction was terminated with addition of 100μ/well 1M H₂SO₄. The absorbance value at 450 nm was read on NOVOStar microplate reader; the ELISA binding EC₅₀ value was calculated.
as §2

[3] = molecular target: T2, recombinant PD-1 extracellular domain …; test: ligand binding blocking ELISA as in Example 2, competitor biotin-labeled PD-L1
Description: (§5) In this experiment, a 96-well plate was coated with a PD-1 protein with the extracellular domain fused with FC (PD-1-FC), and incubated with the test PD-1 antibody; later biotin-labeled PD-L1 was added for incubation. After washing the plate, the binding amount of biotin-labeled PD-L1 was detected; the blocking IC₅₀ value of PD-1 antibody for ligand PD-L1 binding was calculated.
PD-1-FC was diluted to 1 μg/ml with PH 9.6 CB buffer (1.59 g Na₂CO₃ and 2.93 g NaHCO₃ were dissolved in 1 L of distilled water), pipetted into a 96-well plate at 100 μl/well and standed for 16 h-20 h at 4° C. The 96-well plate was washed once with PBST (PH7.4 PBS, containing 0.05% tweeen20) after PBS buffer was removed, then the plate was incubated and blocked for 1 h at room temperature with 120 μl/well PBST/1% milk. After removal of the blocking solution, the plate was washed with PBST buffer once, followed by addition of 90 μl of test PD-1 antibody which was diluted to a suitable concentration with sample diluents (PH7.4 PBS containing 5% BSA, 0.05% Tween20), and incubated for 1 h at 4° C. Then 10× concentrations of biotin-labeled PD-L1 (Beijing Sino Biological Inc.) (10 μg/ml) was added to the plate at 10 μl/well, oscillated and mixed by an oscillator, and incubated at 37° C. for 1 h. After removal of the reaction system, the plate was washed for 6 times with PBST buffer, followed by addition of 100 ul/well Streptavidin-Peroxidase Polymer which was diluted by PBST at a ratio of 1:400, and incubated under oscillation for 50 min at room temperature. After being washed with PBST for 6 times, the plate was added with 100 μl/well TMB, and incubated for 5-10 min at room temperature. Then the reaction was terminated with addition of 100 μl/well 1M H₂SO₄. The absorbance value at 450 nm was read on the NOVOStar microplate reader; the blocking IC₅₀ value of PD-1 for ligand PD-L1 binding was calculated.
as §2

cynomolgus PD-1Fc = molecular target: T3, cynomolgus PD-1Fc (cynomolgus, UniProt B0LAJ3 25-170, Probably biotinylated for capture on avidin, as the human PD-1 FC was in this ELISA. Fused to an Fc that is not given.); test: ELISA, cyno PD-1Fc
T3 construct: Source and construct of the cynomolgus PD-1 Fc fusion are not described; also called cyno PD-1; not shown: Fc part of the cynomolgus PD-1Fc fusion, and any linker

[4] = molecular target: T4, human ICOS/Fc (Beijing Sino Biological Inc.) (human, UniProt Q9Y6W8 21-141, limits assumed); test: ELISA, protein coated at 1 µg/ml
T4 construct: Bought reagent; not shown: Fc part
T4 sequence (looked up): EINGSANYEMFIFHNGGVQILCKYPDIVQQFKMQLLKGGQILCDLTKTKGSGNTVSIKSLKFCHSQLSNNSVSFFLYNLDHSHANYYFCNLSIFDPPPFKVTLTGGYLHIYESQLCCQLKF
Description: (§6) To detect the specific binding activity of PD-1 antibody to other proteins of the PD-1 family, human CTLA4 and human CD28 were used for binding assays. Meanwhile, the PD-1 of mice was also used for binding assays so as to determine the diversity of PD-1 antibody for different species other than human/monkey.
(§7) Selectively binding proteins: human PD-1, human ICOS, human CTLA4, human CD28 and mouse PD-1, (Beijing Sino Biological Inc.), were respectively diluted to 1 μg/ml with PBS buffer, pipetted into a 96-well plate at 100 μl/well and standed for 16 h-20 h at 4° C. The 96-well plate was washed once with PBST (PH7.4 PBS, containing 0.05% tweeen20) after PBS buffer was removed, then the plate was incubated and blocked for 1 h at room temperature with 120 μl/well PBST/1% milk. After removal of the blocking solution, the plate was washed with PBST buffer for 3 times, followed by addition of the test PD-1 antibody, and incubated for 1.5 h at room temperature. After removal of the reaction system, the plate was washed for 3 times with PBST, followed by addition of 100 μl/well HRP-labeled anti-murine secondary antibody (The Jackson Laboratory) which was diluted by PBST/1% milk, and incubated for 1 h at room temperature. The plate was washed for 3 times with PBST, followed by addition of 100 μl/well TMB, and incubated for 5-10 min at room temperature. Then the reaction was terminated with addition of 100 μl/well 1M H₂SO₄. The absorbance value at 450 nm was read on the NOVOStar microplate reader.

[5] = molecular target: T5, human CTLA4 (Beijing Sino Biological Inc.) (human, UniProt P16410 36-162, limits assumed); test: ELISA, protein coated at 1 µg/ml
T5 construct: Bought reagent
T5 sequence (looked up): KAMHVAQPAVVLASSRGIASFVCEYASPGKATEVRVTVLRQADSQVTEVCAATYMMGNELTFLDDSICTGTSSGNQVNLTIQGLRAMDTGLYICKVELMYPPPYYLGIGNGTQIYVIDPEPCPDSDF
Description: as §6, §7

[6] = molecular target: T6, human CD28 (Beijing Sino Biological Inc.) (human, UniProt P10747 19-152); test: ELISA, protein coated at 1 µg/ml
T6 construct: Bought reagent
Description: as §6, §7

[7] = molecular target: T7, mouse PD1-Fc (Beijing Sino Biological Inc.) (mouse, UniProt Q02242 25-167, limits assumed); test: ELISA, protein coated at 1 µg/ml
T7 construct: Bought reagent; also called murine PD-1; not shown: Fc part
T7 sequence (looked up): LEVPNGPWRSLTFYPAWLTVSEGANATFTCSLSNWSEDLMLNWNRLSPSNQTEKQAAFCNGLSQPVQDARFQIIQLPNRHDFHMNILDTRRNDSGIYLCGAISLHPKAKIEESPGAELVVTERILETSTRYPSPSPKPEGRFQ
Description: as §6, §7

[8] = molecular target: T4, human ICOS/Fc (Beijing Sino Biological …); test: selectivity ELISA, protein coated at 1 µg/ml
Description: as §6, §7

[9] = molecular target: T5, human CTLA4 (Beijing Sino Biological …); test: selectivity ELISA, protein coated at 1 µg/ml
Description: as §6, §7

[10] = molecular target: T6, human CD28 (Beijing Sino Biological …); test: selectivity ELISA, protein coated at 1 µg/ml
Description: as §6, §7

[11] = molecular target: T8, human PD1-FC (Beijing Sino Biological Inc.) (human, UniProt Q15116 25-167, limits assumed); test: selectivity ELISA, protein coated at 1 µg/ml
T8 construct: not shown: Fc part
Description: as §6, §7

[12] = molecular target: T7, mouse PD1-Fc (Beijing Sino Biological …); test: selectivity ELISA, protein coated at 1 µg/ml
Description: as §6, §7

[13] = molecular target: T2, recombinant PD-1 extracellular domain …; test: ELISA, biotinylated PD-1 Fc captured on avidin
Description: as §3
as §4, with “After removal of reaction system, the plate was washed for 3 times with PBST buffer, followed by addition of 100 μl/well HRP-labeled anti-murine secondary antibody (The Jackson Laboratory) which was diluted by PBST/1% milk, and incubated for 1 h at room temperature. After being washed with PBST for three times, the plate was added with 100 μl/well TMB, and incubated for 5-10 min at room temperature. Then the reaction was terminated with addition of 100μ/well 1M H₂SO₄.” left out

[14] = molecular target: T1, PD-1 His protein (Beijing Sino …); test: Biacore SPR, antibody coupled to CM5 chip, PD-1 His as analyte, 1:1 model
Description: as §1

[15] = molecular target: T2, recombinant PD-1 extracellular domain …; test: ligand binding blocking ELISA: PD-1-FC coated, competitor biotin-labeled PD-L1
Description: as §5
PD-1-FC was diluted to 1 μg/ml with PH 9.6 CB buffer (1.59 g Na₂CO₃ and 2.93 g NaHCO₃ were dissolved in 1 L of distilled water), pipetted into a 96-well plate at 100 μl/well and standed for 16 h-20 h at 4° C. The 96-well plate was washed once with PBST (PH7.4 PBS, containing 0.05% tweeen20) after PBS buffer was removed, then the plate was incubated and blocked for 1 h at room temperature with 120 μl/well PBST/1% milk. After removal of the blocking solution, the plate was washed with PBST buffer once, followed by addition of 90 μl of test PD-1 antibody which was diluted to a suitable concentration with sample diluents (PH7.4 PBS containing 5% BSA, 0.05% Tween20), and incubated for 1 h at 4° C. […] The absorbance value at 450 nm was read on the NOVOStar microplate reader; the blocking IC₅₀ value of PD-1 for ligand PD-L1 binding was calculated.

B1: humanized antibody H005-1 (antibody, human IgG4 S228P, kappa, F234A L235A, V domains shown)
VH: EVQLVESGGGLVQPGGSLRLSCAASGFTFSSYMMSWVRQAPGKGLEWVATISGGGANTYYPDSVKGRFTISRDNAKNSLYLQMNSLRAEDTAVYYCARQLYYFDYWGQGTTVTVSS
VL: DIQMTQSPSSLSASVGDRVTITCLASQTIGTWLTWYQQKPGKAPKLLIYTATSLADGVPSRFSGSGSGTDFTLTISSLQPEDFATYYCQQVYSIPWTFGGGTKVEIKR
notes: CDR graft of mAb005 on IgHV3-7/JH6 and IGKV1-39/JK4, IgG4 constant region; expressed in HEK293 cells; also called PD-1 antibody H005-1
In the case of B1, the Kd [1] is reported as 2.79 nM, the EC50 [2] is reported as 0.11 nM and the IC50 [3] is reported as 1.27 nM.

B2: humanized antibody H005-4 (antibody, human IgG4 S228P, kappa, F234A L235A, name in Kabat numbering, V domains shown)
VH: B1 VH with G44R
VL: B1 VL with A43S
notes: Back-mutated variant of H005-1, IgG4 constant region
Binder B2 has a Kd [1] of 3.89 nM, an EC50 [2] of 0.14 nM and an IC50 [3] of 1.36 nM.

B3: humanized antibody H005-2 (antibody, human IgG4 S228P, kappa, F234A L235A, name in Kabat numbering, V domains shown)
VH: B1 VH with G44R
VL: B1 VL
notes: as for B2
B3 showed a Kd [1] of 2.98 nM, an EC50 [2] of 0.14 nM and an IC50 [3] of 1.27 nM.

B4: humanized antibody H005-3 (antibody, human IgG4 S228P, kappa, F234A L235A, name in Kabat numbering, V domains shown)
VH: B1 VH
VL: B1 VL with A43S
notes: as for B2
In the case of B4, the Kd [1] is reported as 2.45 nM, the EC50 [2] is reported as 0.15 nM and the IC50 [3] is reported as 1.33 nM.

B5: murine monoclonal antibody mAb005 (antibody, V domains shown)
VH: EVMLVESGGGLVKPGGSLKLSCAASGFTFSSYMMSWVRQTPEKRLEWVATISGGGANTYYPDSVKGRFTISRDNAKNTLYLQMSSLRSEDTALYYCARQLYYFDYWGQGTTLTVSS
VL: DIQMTQSPASQSASLGEGVTITCLASQTIGTWLTWYQQKPGKSPQLLIYTATSLADGVPSRFSGSGSGTKFSFKISSLQAEDFVTYYCQQVYSIPWTFGGGTKLEIK
notes: Murine monoclonal antibody from a hybridoma; also called PD-1 antibody mAb005
In the case of B5, the EC50 (cynomolgus PD-1Fc) is reported as 0.27 nM, the binding result [4] is reported as “no binding” and the binding result [5] is reported as “no binding”. For the same binder, the binding result [6] was “no binding”, the binding result [7] was “no binding” and the “absorbance at 450 nm” value [8] was 0.15. For the same binder, the “absorbance at 450 nm” value [9] was 0.17, the “absorbance at 450 nm” value [10] was 0.12 and the “absorbance at 450 nm” value [11] was 2.64. The “absorbance at 450 nm” value [12] was 0.07, the EC50 [13] was 0.25 nM and the Kd [14] was 3.57 nM. For the same binder, the koff [14] was 0.000377 s⁻¹, the kon [14] was 106000 M⁻¹ s⁻¹ and the IC50 [15] was 1.13 nM.
